Test results as given in article PMC3882140.

Biological target: CP-431C/mCherrySP141(C140A) P22 procapsid (bacteriophage P22) (UniProt P26747)
Test: pelleting by ultracentrifugation and resuspension

Substance: CP-431C/mCherrySP141(C140A) P22 procapsid (from UniProt P26747 1-430; P26748 141-303) (complex)
- soluble capsid recovered after pelleting, relative to wtCP/mCherrySP141(C140A): 3%
